In assay [1] the target is Aβ(1-40) monomer in 0.1% NH4OH (human). The assay can be described thus: dot blot with densitometry; Aβ form dotted on nitrocellulose in serial dilution, antibody 0.2 µg/ml; higher value = weaker recognition.
For assay [2], the target named is Aβ(1-40) monomer in 0.1% NaOH (human). Described as above.
In assay [3] the target is Aβ(1-42) fibril (human) (UniProt P05067). The assay is described as above.
Assay [4] addresses Aβ(1-42) globulomer (human) (UniProt P05067). Described as above.
Assay [5] deals with Aβ(1-42) monomer in 0.1% NH4OH (human). The description is as above.
Aβ(1-42) monomer in 0.1% NH4OH (human), sequence (peptide, as listed by the source): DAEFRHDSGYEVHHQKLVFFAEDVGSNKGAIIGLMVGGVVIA
Assay [6] concerns the target Aβ(1-42) monomer in 0.1% NaOH (human). Described as above.
Assay [7] deals with platelet factor 4 (PF-4) in Cynomolgus monkey plasma (cynomolgus monkey (Macaca fascicularis)). The assay can be described thus: sandwich ELISA with cynomolgus plasma; AUC of the reference anti-HPF4 antibody over AUC of this antibody.
platelet factor 4 (PF-4) in Cynomolgus monkey plasma (cynomolgus monkey (Macaca fascicularis)), sequence (chain, as listed by the source): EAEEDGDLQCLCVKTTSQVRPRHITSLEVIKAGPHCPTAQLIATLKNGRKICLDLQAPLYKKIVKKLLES
Assay [8] has as its target human platelet factor 4 (HPF4) in human plasma spiked with human PF4 (human) (UniProt P02776). The assay can be described thus: sandwich ELISA with HPF4-spiked human plasma; AUC of the reference anti-HPF4 antibody over AUC of this antibody.
In assay [9] the target is platelet factor 4 (PF-4) in Cynomolgus monkey plasma (cynomolgus monkey (Macaca fascicularis)). In words: aligned sandwich ELISA with cynomolgus plasma; AUC of the reference anti-HPF4 antibody over AUC of this antibody. (In an ELISA, binding on a coated surface is turned into a signal by an enzyme label.)
Assay [10] addresses human platelet factor 4 (HPF4) in human plasma spiked with human PF4 (human) (UniProt P02776). The assay can be described thus: aligned sandwich ELISA with HPF4-spiked human plasma; AUC of the reference anti-HPF4 antibody over AUC of this antibody.

human platelet factor 4 (HPF4) in human plasma spiked with human PF4 (human), sequence (P02776 32-101): as the sequence (chain, as listed by the source) above, with V64I counted along it
Aβ(1-40) monomer in 0.1% NaOH (human), sequence (peptide, as listed by the source): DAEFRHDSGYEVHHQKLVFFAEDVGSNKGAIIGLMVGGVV

For “Anti-Aβ monoclonal antibody clone 6E10 (Covance cat. no. SIG-39320)”, the dot blot relation of recognition of Aβ(20-42) globulomer to recognition of this Aβ form in [1] came out at 3; in [2] it was 20; in assay [3], 29; in assay [4], 0.09; in [5], 10; in assay [6], 10.

In the case of “Anti-HPF4 monoclonal antibody (Abcam Cat. No. ab49735)”, the Ratio HPF4/aAβ antibody (PF4 discrimination factor) in assay [7], in assay [8], in assay [9] and in assay [10] was 1 in each case.

On to Monoclonal antibody clone mIgG2a, for which the Ratio HPF4/aAβ antibody (PF4 discrimination factor) in assay [7] is 517; in [8] it was 331; in assay [9], 325; in assay [10], 118.

The record behind these values is patent US20150368299A1.
